Experimental data taken from patent US20100081621, “Crystal structure of the catalytic domain of the viral restriction factor APOBEC3G” (published 2010).

Assays:
[1] = target: APOBEC3G-CD2 (Homo sapiens, UniProt Q9HC16 Q9HC16:197-380); test: about 2-fold decrease in processivity and polarity; details: tags: GST removed by PreScission protease; label: internal fluorescein-dT
Excerpt: (§1) FIG. 1B is Apo3G processivity and 3′_{—}5′ deamination bias was characterized on an 85-nt internally F-labeled ssDNA with two CCC motifs 30-nt apart. Single deaminations of the 5′C and 3′C that are spaced by 30-nt on the ssDNA substrate are detected as the appearance of labeled 67- and 48-nt fragments, respectively; double deamination of both Cs on the same molecule results in 30-nt labeled fragment (5′C and 3′C). Substrate usage (%) is less than 15% to maintain single-hit kinetics. The ‘Processivity factor’ is defined as the ratio of the observed fraction of double deaminations (occurring at both 5′C and 3′C on the same molecule) to the predicted fraction of independent double deaminations (Chelico et al., 2006). […] The deamination bias is measured by the ratio of 5′C/3′C deaminations. Deamination patterns are shown using full length Apo3G (lane 2) and Apo3G-CD2 (lanes 3, 4). As a control, no Apo3G or Apo3G-CD2 enzyme was added in lane 1.
(§2) Apo3G (0.024-μM) was allowed to react with 500 nM FdT incorporated ssDNA for […] and subsequently treated with UDG and resolved on 16% UREA PAGE for analysis as described previously¹⁰. Specific activity, measured as fmoles substrate deaminated per pg enzyme per minute, was calculated from the percent deamination of an ssDNA substrate over a range of enzyme concentrations. […]

[2] = target: APOBEC3G full-length (E. coli) (Homo sapiens, UniProt Q9HC16 Q9HC16:1-384); test: processive deamination with bias to the 5' CCC; details: tags: GST, pGEX-6P1, E. coli; label: internal fluorescein-dT
Excerpt: as §1, §2

[3] = target: APOBEC3G D316R/D317R (Homo sapiens, UniProt Q9HC16 Q9HC16:1-384, D316R,D317R); test: FP; higher binding than wt; 5 mM MgCl2, 37 C; details: tags: Sf9, pAcG2T; label: internal fluorescein-dT
Procedure: Apo3G-DNA binding were monitored by changes in steady state fluorescence depolarization (rotational anisotropy). Reaction mixtures (70 μl), containing an F-labeled DNA ([…]) in buffer (50 mM HEPES, pH 7.3, 1 mM DTT and 5 mM MgCl₂) and varying concentration of 0 to 500 nM Apo3G, were incubated at 37° C. The sequence of the ssDNA is: tta gat gag tgt aa(FdT) gtg ata tat gtg tat. Rotational anisotropy was measured as described previously (Chelico et al., 2006). The fraction of DNA bound to protein was determined as described previously (Bertram et al., 2004).

Chain of APOBEC3G-CD2 (Q9HC16 197-380, one chain of several): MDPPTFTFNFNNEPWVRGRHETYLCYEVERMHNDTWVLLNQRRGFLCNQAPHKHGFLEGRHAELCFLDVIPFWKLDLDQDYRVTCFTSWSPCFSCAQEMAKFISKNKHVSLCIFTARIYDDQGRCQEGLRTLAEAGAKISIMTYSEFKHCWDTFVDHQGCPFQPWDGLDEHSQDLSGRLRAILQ
Chain of APOBEC3G full-length (E. coli) (Q9HC16 whole entry, one chain of several): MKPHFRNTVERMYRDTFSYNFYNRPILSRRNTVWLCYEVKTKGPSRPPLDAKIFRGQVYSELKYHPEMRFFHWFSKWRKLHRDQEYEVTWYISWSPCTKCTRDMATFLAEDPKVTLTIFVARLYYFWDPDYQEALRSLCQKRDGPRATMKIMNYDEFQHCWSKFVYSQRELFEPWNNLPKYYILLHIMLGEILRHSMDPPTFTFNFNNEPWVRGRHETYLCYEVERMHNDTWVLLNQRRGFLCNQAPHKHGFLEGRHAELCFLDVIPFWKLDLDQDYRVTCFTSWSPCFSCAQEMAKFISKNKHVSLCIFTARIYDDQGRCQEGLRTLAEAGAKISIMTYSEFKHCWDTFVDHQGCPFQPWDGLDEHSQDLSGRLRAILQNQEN
Chain of APOBEC3G D316R/D317R (Q9HC16 whole entry D316R/D317R, one chain of several): as the sequence (Q9HC16 whole entry, one chain of several) above, with D316R, D317R counted along it

Binder | binding result [1] | binding result [2] | binding signal [3]
85-nt processivity ssDNA (ssDNA, [31 (FdT = fluorescein-dT, written as T)]) DNA: AAAGAGAAAGTGATACCCAAAGAGTAAAGTTAGATAGAGAGTGATACCCAAAGAGTAAAGTTAGTAAGATGTGTAAGTATGTTAA | binds | binds | –
TTAGATGAGTGTAATGTGATATATGTGTAT (ssDNA, [15 (fluorescein-dT)]) [anisotropy ssDNA] | – | – | 2 fold of wt
